Patent publication US9598481B2 (priority 2012, dated 2017)
Residue numbers refer to the chain shown, from its start. Values joined by “and” are separate entries in the source; they are usually repeats but may differ in a detail not shown here. Equal values may be shown once.

B1: mAb 39.29 NCv1: anti-hemagglutinin monoclonal antibody; VL SEQ ID NO:144, VH SEQ ID NO:142 (antibody, V domains shown)
VH: QVQLVESGGGVVQPGKSPRLSCAASGPTFSSYAVHWVRQAPGKGLEWVTLISYDGANQYYADSVKGRFTISRDNSKNTVYLQMNSLRPEDTAVYYCAVPGPVFGIFPPWSYFDNWGQGILVTVSS
VL: EIVLTQSPATLSVSPGERATLSCRASQVISHNLAWYQQKPGQAPRLLIYGASTRASGIPARFSGSGSGTDYTLTITSLQPEDFAVYYCQHYSNWPPRLTFGGGTKVEIK
B2: mAb9.01F3: phage-display derived anti-hemagglutinin monoclonal antibody; VL SEQ ID NO:166, VH SEQ ID NO:164 (antibody, V domains shown)
VH: QVQLVQSGAEVKQPGASVKVSCKASGYTFNAYYIHWVRQAPGQGLEWMGWINPNFGGTHYARKFQGRVTMTRDASINTAYMELDRLISDDTAVYYCVRWRAAAVIMDQFYKMDVWGQGTLVTVSS
VL: SSELTQPPSASGTPGQRVTISCSGSTSNIGYNPVSWYQQVPGTAPKLLIYSNTERPSGVPDRFSGSKSGTSASLAISGLQSEDEADYYCAAWDDTLNGPVFGGGTKVTVL
B3: mAb 81.39 SVSH-NYP: anti-hemagglutinin monoclonal antibody; VL SEQ ID NO:117, VH SEQ ID NO:115 (antibody, V domains shown)
VH: EVQLVESGGGVVQPGRSLRLSCAASGFAFHNRAMHWVRQAPGKGLEWVALIYFDGSKQYYADSVKGRFTISRDNSKNTVFLQMNSLRPEDTAVYYCAVPGPIFGIFPPWSYFDHWGQGILVTVSS
VL: EIVLTQSPATLSVSPGERATLSCRASQSVSHNLAWYQQKPGQAPRLLVYSASTRATGIPARFSGSGSGTEFTLAISSLQSEDFAVYYCQHYTNYPPRLTFGGGSKVEIK
B4: mAb 81.39: anti-hemagglutinin monoclonal antibody 81.39, variant not specified in the competition ELISA (antibody, V domains shown)
VH: B3 VH
VL: B3 VL with Y94W
B5: mAb 81.39 B1C1: anti-hemagglutinin monoclonal antibody; VL SEQ ID NO:113, VH SEQ ID NO:111 (antibody, V domains shown)
VH: B3 VH with E1Q
VL: B3 VL with S30D, H31S, Y94W
B6: mAb 39.18 B11: anti-hemagglutinin monoclonal antibody; VL SEQ ID NO:156, VH SEQ ID NO:154 (antibody, V domains shown)
VH: EVQLVQSGAEVKKPGSSMKVSCKASGSIFSNYGISWVRQAPGQGLEWMGGIIPIFGAANYAQKFQGRVTITADESTSTVYMEVRSLRSEDTAVYYCARRQQLYKGYYHHWGQGTLVTVSS
VL: EIVLTQSPATLSVSPGERVTLSCRASQSVANNLAWYQQKPGQSPRLLIYGASTRDTGIPARFSGSGSGTEFTLTISSLQSEDFAVYYCQQYNNWPPMYTFGQGTKLEIK
B7: mAb 36.89: anti-hemagglutinin monoclonal antibody; VL SEQ ID NO:162, VH SEQ ID NO:160 (antibody, V domains shown)
VH: QVQLVQSGAELKRPGASVKVSCKTSGYSFNNYGINWVRQAPGQGLEWMGWISAYTGNTHYAKNFEGRVTLTTDTSTSTAYMEVRSLRSDDSAVYFCARAMIQGVVTLYLRPGDYWGQGTLVTVSS
VL: DIVMTQSPSTLSASVGDRVTITCRASQSIGNWLAWYQQKPGKAPKLLIYKVSTLESGVPSRFSGSGSGTEFTLTINSLQPDDFATYYCQRYTSNSQGFTFGQGTKLEIK
B8: mAb23.06C2: phage-display derived anti-hemagglutinin monoclonal antibody; VL SEQ ID NO:170, VH SEQ ID NO:168 (antibody, V domains shown)
VH: QVQLQESGPGLVKPSETLSLTCTVSGGLIGTGSYYWGWIRQTPGKGMEWIGSISYSGSTYYHPSLKSRVTISDDTSKNQLFLKLRSVTAADTAQYYCARYNWGIRYFDFWGRGTLVTVSS
VL: DIQLTQSPLSPPVTLGQPASISCRSSQSLLYTDGFTYLSWYHQRPGQSPRRLIYKISNRDSGVPDRFSGSGSGTDFTLKISRVEAEDVGVYYCMQATHWPLTFGEGTKVEIK

Key:
[1] = system: H5N1 A/Vietnam/1203/04 influenza A virus; type: in vivo, ferrets (Mustela putorius furo)
[2] = system: H3N2 A/Port Chalmers/1/1973; type: cell-based, influenza A virus; details: read-out: in vitro IC50
[3] = system: H3N2 A/Aichi/2/1968; type: cell-based, influenza A virus; details: read-out: in vitro IC50
[4] = system: HIV pseudotype virus bearing hemagglutinin H5 from H5N1/Vietnam/1203/2004; type: cell-based
[5] = system: H3N2 A/Hong Kong/1/1968; set-up: species or system DBA/2J mice; details: mouse
[6] = system: H3N2 A/Port Chalmers/1/1973; set-up: species or system DBA/2J mice; details: mouse, in vivo
[7] = system: H3N2 A/Aichi/2/1968; set-up: species or system DBA/2J mice; details: mouse, in vivo
[8] = system: Group1 influenza A virus strains; type: cell-based
[9] = system: Group2 influenza A virus strains; type: cell-based
[10] = system: hemagglutinin H1 from A/NWS/1933; type: binding, influenza A virus
[11] = system: hemagglutinin H3 from A/HK/8/1968; type: binding, influenza A virus
[12] = read-out: EC50 competition with biotinylated mAb 39.29

Row | Molecule | in vitro neutralization of Group1 influenza A virus panel [8] | in vitro neutralization of Group2 influenza A virus panel [9] | competition for binding of mAb 39.29 on Group1 H1 hemagglutinin stalk [10] | competition for binding with mAb 39.29 on Group2 H3 hemagglutinin stalk epitope [11] | other results
1 | CCOC(=O)C1=C[C@@H](OC(CC)CC)[C@H](NC(C)=O)[C@@H](N)C1 [oseltamivir, oseltamivir phosphate, reference compound] |  |  |  |  | mortality ([1]; twice-daily oral 25 mg/kg for 5 days, irrespective of treatment initiation time (48 or 72 hours)): 50%
2 | B1 |  |  |  |  | IC50 [2]: 2.9 nM; IC50 [3]: 35 nM; in vitro neutralization of pseudotype virus expressing hemagglutinin H5 [4]: dose-dependent in vitro neutralization; mice protected (survival) ([5]; in vivo): 87.5% and 75%; minimum efficacious dose in vivo ([5]; iv): 15 mg/kg; efficacy at all tested doses [6]: very efficacious; efficacy at all tested doses [7]: very efficacious
3 | B2 | not able to neutralize any Group1 influenza A virus isolate tested | able to neutralize the entire Group2 influenza A virus panel examined | do not compete for binding | compete for binding | 
4 | B3 | effective at the in vitro neutralization of all influenza A virus strains tested | effective at the in vitro neutralization of all influenza A virus strains tested |  |  | 
5 | B4 |  |  | compete for binding | compete for binding | EC50 [10, 12]: 2.15 nM; EC50 [11, 12]: 4.21 nM
6 | B5 |  |  |  |  | survival ([1]; in vivo, iv, 25 mg/kg): 100% and 80%
7 | B6 | effective at in vitro neutralization of the entire Group1 influenza A virus panel examined | not able to neutralize Group2 influenza A virus strains |  |  | 
8 | B7 | not able to neutralize any Group1 influenza A virus isolate tested | able to neutralize the entire Group2 influenza A virus panel examined | do not compete for binding | compete for binding | 
9 | B8 | not able to neutralize any Group1 influenza A virus isolate tested | able to neutralize the entire Group2 influenza A virus panel examined | do not compete for binding | compete for binding | 
